Paper PMC7425812 (Nature cell biology, 2020)
Like-named read-outs stand apart in the source and are kept apart here.

What was measured:
[1] = target: the molecule itself; assay: SDS-resistant dimer on SDS-PAGE immunoblot
[2] = target: the molecule itself; assay: SDS-resistant dimer on SDS-PAGE immunoblot; remark: listed apart in the source

Row | Protein | stoichiometry N [1] | stoichiometry N [2]
1 | AKAP95 (endogenous, HeLa cell nuclear extract) (natural protein) not shown | 2 | –
2 | FLAG-HA-tagged AKAP95 (FH-AKAP95), wild type (natural protein) not shown | – | 2
